Assay: soluble on expression in E. coli; label from the status in PepcDB or PDB records

| Sequence | soluble on expression in E. coli |
| --- | --- |
| MAVSATGFEGFEKRLEISFFETTDFLDPQGKSLRSLTKSQLDEILTPAECTIVSSLTNSFVDSYVLSESSLFVYPYKIIIKTCGTTKLLLSIPHILRLADSLCLTVKSVRYTRGSFIFPGAQSYPHRSFSEEVALLDDYFGKLNAGSKAFVMGGSDNNPQRWHVYSASSTEESAVCDKPVYTLEMCMTGLDNIKASVFFKTNSVSASEMTISSGIRNILPGSEICDFNFEPCGYSMNSIEGDAVSTIHVTPEDGFSYASFETVGYDLKALNFKELVDRVLVCFGPEEFSVAVHANLGTEVLASDCVADVNGYFSQERELEELGLGGSVLYQRFVKTVECCSPKSTLGFC | not soluble |
| MYRAIGMIELTSVARGIYATDQMLKIAYVDVVSATPVCPGKYIAIVQGDVAAVESSISTGIAISGEYLVDSFVLPNVHEGIFPAITATTMPDGTGALGIMESFSMASMITAADAALKAADVQALELRLGSGLGGKAYFTFTGDVAAVEAGIEAGKAIAMEKGLLVDIEVIPSPSDRLWTSLY | soluble |
| GRMRIQEQSGARDKMVIGAGGLEDYIDKAMDDVAPNLKALVGAKLGARLISLAGGLKELAMLPSSTIQVLGAEKALFRHLRTGAKPPKHGVIYQYPAINRSPWWQRGKIARALAGKLAIAARVDYFSGEYIAEELKKELEARIKEIKEKYPRPPKRRKEERKGRKPWKE | soluble |
| SLNFRAEDLASGILRERVKVGASLADVDPMNIDKSVRFDSIGGLSHHIHALKEMVVFPLLYPEIFEKFKIQPPRGCLFYGPPGTGKTLVARALANECSQGDKKVAFFMRKGADCLSKWVGESERQLRLLFDQAYLMRPSIIFFDEIDGLAPVRSSRQDQIHSSIVSTLLALMDGLDNRGEIVVIGATNRLDSIDPALRRPGRFDREFLFNLPDQKARKHILQIHTRDWNPKLSDAFLGELAEKCVGYCGADIKALCTEAALIALRRRYPQIYASSHKLQLDVSSIVLSAQDFYHAMQNIVPASQRAVMSSGHALSPIIRPLLERSFNNILAVLQKVFPHAEISQSDKKEDIETLILEDSEDENALSIFETNCHSGSPKKQSSSAAIHKPYLHFTMSPYHQPTSYRPRLLLSGERGSGQTSHLAPALLHTLERFSVHRLDLPALYSVSAKTPEESCAQIFREARRTVPSIVYMPHIGDWWEAVSETVRATFLTLLQDIPSFSPIFLLSTSETMYSELPEEVKCIFRIQYEEVLYIQRPIEEDRRKFFQELILNQASMAPPRRKHAALCAMEVLPLALPSPPRQLSESEKSRMEDQEENTLRELRLFLRDVTKRLATDKRFNIFSKPVDIEEVSDYLEVIKEPMDLSTVITKIDKHNYLTAKDFLKDIDLICSNALEYNPDKDPGDKIIRHRACTLKDTAHAIIAAELDPEFNKLCEEIKEARI | soluble |
| KEENNFINLYTVKNPLKCKIVDKINLVRPNSPNEVYHLEINHNGLFKYLEGHTCGIIPYYNELDNNPNNQINKDHNIINTTNHTNHNNIALSHIKKQRCARLYSISSSNNMENLSVAIKIHKYEQTENAPNITNYGYCSGFIKNLKINDDIYLTGAHGYFNLPNDAIQKNTNFIFIATGTGISPYISFLKKLFAYDKNNLYNRNSNYTGYITIYYGVYNEDSILYLNELEYFQKMYPNNINIHYVFSYKQNSDATSFYVQDEIYKRKTEFLNLFNNYKCELYICGLKSIRYKVMDILKSHDQFDEKKKKRVHVEVY | soluble |
| SLLGMNFAMHTTIDTKLVLFGPSENLVTEDDDARNMASKLIENGIITTACINYVKDKPAESKLREMRIVLEPVGKIISDYIKDGYVPVTF | not soluble |
| TIDEINKAISSSLSRERIMETAMAQVERITGCEFVAILQAENGGLKVMSSHASGLEIPAALRPGAPLSLAGCTAWTAFRTGRSASIADLADTRKPGTVSRTLLAAGIRSLLAIPLMSRDQVKGVLLLGDTEPDKFARGETFTIEKIASQMAVALENARLYEDMR | not soluble |
| MQVIRKPTRMLSGVTIVSIMTHPHSCPHGKCVFCPGGVDVDTPQSYYGREPTLMRAIENDYDPFHQVQSRLRQYVENGHTPSKVELIIMGGTFLSLPIDYQDWFVTYALEAMNRFPSYDKPSFVYLEDAQVKNEKAEVRCVGMTIETKPDWAKEWHADQMLRLGATKVELGVQTVYDDILKFTNRGHTVKDSIESTRILKDSGFKVVYHVMLGLPKSDPDKDLEAFKTIFSDPNFRPDMLKIYPTLVVETAPLANLWRRGLYKPYGTETLIELISEMYRYIPKWVRVMRIQRDIPANVILDGNKKGNLRELVEKKVLEKGIKINEIRFREVGMMWQHRGLLPDHTKIHLYKEVYEASEGTEIFLSFEDEKEILIGYLRLRITSNKAHRKEIDGKTAIVRELHVYGIEVPIGSWDELGFQHRGYGSKLLSEAEKIAREEFDMRKISVLSGIGAREYYAKRGYVKEGPYMSKQLI | not soluble |
| GMMTHYSDNTLKVAHQGFEFFTQGLATGEWQKFLDMLTEDFTFWFPMGEFHGLNVGKERAKEFFTYVSESFHTGIQISSLDRVTSNETTVVFEFRDEGLFLGKPYKNRVAVSFDVRGDKICSYREYFGSDGKSN | soluble |
| MAHHHHHHMLRRLVSCASPLRLRGCGAAVVLGNGRFASTANASAAPPITTTKAPTYGTVPDIPNLNFLSSPDNLLNTVDGTVDVCEALLKEIPKAKTPQAKHDLIDSTSNVLCLLLDPCEFVRQIHPDENYKRGASLAFQKGYEYMCEVNSRRDLYDVIKELDSQEGRKGLTPESSRTLCS | not soluble |
| LLRMHESLARRQLAEVERLDLVRQVRELIGELLVDGGATLEQVAARLGMPARRLRERLAMAGVRFNDLVTDYRCRLAKE | not soluble |
| MSGTRKKALLKVIILGDSGVGKTSLMNQYVNRRFSNQYKATIGADFLTRDVNIDDRTVTLQIWDTAGQERFQSLGVAFYRGADCCVLAFDVTNAASFKSLDSWRDEFLIQASPRDPDHFPFVLLGNKVDLESQRAVSSKRAQSWCQTKGNIPYYEVSAKEALNVEAAFLAIARDALARESQETNDFPEFPDQIRLNPNQQNQQNSGCNC | not soluble |
| MPQALSTDILIVGGGIAGLWLNARLRRAGYATVLVESASLGGGQSVKSQGIIHGGAKYALHGALTGASEAIADMPRRWRACLGSDGELDLRGVRLLSEAHYLWSPGGLAGSLTSFFASKAVRSRVEQAKGEDLPPALRDKGFKGKAYRLTEIVFDVPDLIRRLAELAGDSLLAGERIEPLREGRELAGLCVDGREIRAQRVVLSAGAGNEALLRELGLEQPAMQRRPLHMVMVKAATLKPLYAHCLGAGPKPRITVTTHPTRDGQSVWYLGGDIAETDGVARDEAAQIAEARRELAKLLPWIDLGQAQWATLRVDRAEPAQSNLLRPDNAFLAEQGRLLVGWPTKLALAPDFADRVCARLEEDGIRPSEHAALPQLPRPPLAEPAWEVAFALEHHHHHH | not soluble |
| MGSDKIHHHHHHMAIYEARGFSSYLYPYKGPLEPFDYIAQFRPLKPPEDIDIEEYKRTQAPYCLSGKVTAEKNGSYKRNNASLVYRDLIFLDYDEIETGVNLPKIVSQTLWEYSYIIYPTIKHTPEKPRYRLVMKPSDVMTEATYKQVVKEIADKIGLPFDLASLTWSQLQGLPVTTGDPEDYQRYVNHGLDYPVPKNGSTPNRQVVTTYTPRPRSQRSITMRVIDTLFNGFGNEGGRNVALTKFVGLLFNKWVDCDLETAYELVQIANSVTTKPLPIDEIDRTFTSIAKAEYRKRG | not soluble |
| MGSDKIHHHHHHMIDNIMAILEPVIGRTIKRKISTMSGKKLPFIAGHKLLYTCNLRCDMCPFWRRKDEKLLSLEEEIKMMDSLASAGVSFMGFEGGEPLLRNDLEDILKESHKRFHTSLVTNGWLLKGRASSISRYLDYLFVSIDGRKETHDKQRGVPSSFDHAIEGIKEAKKYVPVAMSTTITTNNMDDIKYVVNLAEELGIGVNIQVSYDYSTADKLSPDRKKLYDLLLDLKKMKEDGAPIVNSKEYFDTLVNSWYYGIPWACKPWSTVNIDPQGRIVMPCYVLNEYAGEKKVWEIDIKELWNTYDWKPYESCNKCSLSCYLEPSIFSWRKPSMVSERIFGSIADYIASIF | not soluble |
| MGSDKIHHHHHHQVSGDTVKIGFITDLSGLYADIDGQGGVEAIKMAIEDAGGKVLGKPIELVTADHQNKADIAASKAREWMDQQGLDVLIGGTNSGTALAMNKVAAEKKRVYINNGAGTARLTNEECSPYTVHYAYDTVALAKGTGSAVVKQGGKSWFFLTADYAFGHSLESDTAAVVKANGGTVLGSVRHPLSASDFSSFLLQAQASKAQILGLANAGGDTINSIKAAKEFGITKTMKIAGLLMFINDIHSLGLKNTEGLLMTDSWYWDMNDDTRKFANRYFSKMKKMPSSLQAADYSAVSTYLKAVAAAKTDDPDKVMAELKKTKINDFYTKGYIRQDGRGIHDMYLMQVKSPAESKKPWDYLKIVATIPGDQAFTTVAESKCSMMKK | not soluble |
| GPGSMLRRSYATLRRKASVVLKGQLNPLEALTQIQLGMTPSLPIQRGFLLEHCERQLESLGITEGKLLAMDGRLCTQLTKRIVYELYLSVPFRVFTFDMEFTGPPVFTADGPTEDITELGLYSPLLDETFSCLVRPVCGRKQGPGVEELTHITDMMLEREGIPFVEAWQQFLKFVQTPQPDEISGSEERILLLSHGGKLADVSLIKWTLEKFHMELPPSFVFGDTIHLIRDAHRRRPVTIDKHPPSWKLADLVQWLHIPPTLPAHRAGNDARMTWDALYHTLLRYGDDGMTPREQLVPRFFDAEAKQLLREHTARQAQERAALSLDGTFLLADAKQSTSAGHADSSSIGYSVYRSASDGSGKPGKSGAATDLLDLDFDDIFSEQNKVSASAPIEEFKLDDDDDLHSISAGATSFTASRTLSSTTTSRTADLSVDPAEDDNAVSDVNAASTSTVSPARAAKTATSGGRKGKASGSSRSKEAVEKRNKRRVSAGDDDGGETSDPPAAATRAVFLV | soluble |
| MAHHHHHHMENEALKEQEGEENKRILVLHKRYREGPFENRLRFECELEFVQSLSNIDYIKHLYENKYFSDKRFLNYLKYLNYWRTKPYIFYIHFPICLYVLEILNDGKIDEYFSKESSFNNFVYYLKLHWLFYSYQI | not soluble |
| MIKPLTSSQEEVLKALNDDKYQIVGVFGPTGTGKTLLTLSYGIDVIKQGKFKKFIIVKPIVDIVTKKEITATELPNYHEVILSYIKDVLGPEYSATVDELYKSGRIEILDSRLLRGRTFDDSIIFIDEVQELQPESIIELIIRIGRNSKLVVAGDPVFQSLQMKTFKDPSELVREVLLNEEDAKVIDLGVKDIIRAGAKRGLRLLIEYRLRSRILSEEENKVLNVTKAHAPDADIITVVDLSEEKKKLGLDNLTTVPDSIIVVKEGNIGRLVGKGGERINSTEKEIGKKLRALELSLDFKEYIRAVHPLPWVVKHIEDADFKGNELVVQIKKETGAFMGQKGSYVRFVDEAIRKLLGVGIRVIAKENENS | soluble |
| MGSDKIHHHHHHMVDCDRIDRLIAAVPPALALRAGLDLGIFTRLGGDAATADSLGAALKVEPDRLSRLLYALASIDLLEVKDGQFRNGAEASAFLDASKPTYRGGDHALLRELWGADLLTAESLRQNRPAALHDFSEAGPEAAAAFSRMLAPGGVIFGRHLAREIDLSAIGSVIDIGGGAGTILVGLRERRRQIAATLMELPTVAAVAPAILSEYGADDVIVEEGDITVAPSIGRHDLAILKAVVQVLPPDQARNAILNAARCLTPGGEIAIAGWGVVDDDRLGPSEGVFLNLTFLNLYRHGESYTEGQYRAWMTEAGFRNISRSRLTDGTALFRGRLTD | not soluble |

Source: the DeepSol protein solubility set
